The target in the experiment is MbnN from Methylosinus trichosporium OB3b, tagless (C-terminal His6 tag removed by TEV protease) (Methylosinus trichosporium OB3b). The experiment can be described thus: native gel or EMSA.

Results on one substance are retold here after publication PMC6019534.

A word on the stoichiometry N: it is a count of units in the complex or per binding partner.

“MbnN from Methylosinus trichosporium OB3b, tagless (C-terminal His6 tag removed by TEV protease) (enzyme)”: the stoichiometry N stood at 2.
